In article PMC8748874, “Structures of the human peroxisomal fatty acid transporter ABCD1 in a lipid environment” (Communications Biology, 2022) one finds Km data, which are given here for 1 substance.

The series deals with T1, Nc1ncnc2c1ncn2[C@@H]1O[C@H](COP(=O)(O)OP(=O)(O)OP(=O)(O)O)[C@@H](O)[C@H]1O.
T1 construct: full length, codon-optimized synthetic gene; C-terminal eYFP-Rho1D4 tag cut off with 3C protease; HEK293 Flp-In TREX; homodimer; in DDM/CHS, liposomes or MSP1D1 nanodiscs
Kind of series: molybdate-based colorimetric ATPase assay. It is filed as biochemical, Homo sapiens. The settings on record: BPL/Chol liposomes and nanodiscs, 10 mM MgCl2, pH 7.5, 37 °C, ATP 0.0625 to 8 mM.

In the case of ABCD1 (ALDP) (Homo sapiens), the Km result was “about 0.3 mM”.
